From the Human Domainome abundance scans (Beltran et al. 2025)
± gives the uncertainty stated by the source.

B1: E3 ubiquitin-protein ligase Midline-1, residues 172 to 214; numbered along this chain, O15344 (parent)
chain: GLMCLEHEDEKVNMYCVTDDQLICALCKLVGRHRDHQVAALSE

Variants of: B1
Assay: abundance fitness (aPCA) (normalised: wild type 0, dead -1); higher = more abundant; growth selection in yeast, the domain comes from the species named
Conditions: Homo sapiens

Row | Variant | abundance fitness
1 | GLMCLEHEDEKVNMYCVTDDQLICALIKLVGRHRDHQVAALSE [C27I] | -0.538 ± 0.37
2 | GLMCLEHEDEKVNMYCVTDDQLSCALCKLVGRHRDHQVAALSE [I23S] | -0.369 ± 0.23
3 | GLMCLEHEDEKVNMYCVTDDQLTCALCKLVGRHRDHQVAALSE [I23T] | -0.1 ± 0.075
4 | GLMCLEHEDEKVNMYCVTDDQLWCALCKLVGRHRDHQVAALSE [I23W] | -0.423 ± 0.39
5 | GLMCLEHEDEKVNMYCVTDDQLMCALCKLVGRHRDHQVAALSE [I23M] | 0.011 ± 0.089
6 | GLMCLEHEDEKVNMYCVTDDQLACALCKLVGRHRDHQVAALSE [I23A] | 0.022 ± 0.068
7 | GLMCLEHEDEKVNMYCVTDDQLVCALCKLVGRHRDHQVAALSE [I23V] | 0.151 ± 0.082
8 | GLMCLEHEDEKVNMYCVTDDQLECALCKLVGRHRDHQVAALSE [I23E] | -0.233 ± 0.15
9 | GLMCLEHEDEKVNMYCVTDDQLFCALCKLVGRHRDHQVAALSE [I23F] | -0.38 ± 0.31
10 | GLMCLEHEDEKVNMYCVTDDQLLCALCKLVGRHRDHQVAALSE [I23L] | -0.019 ± 0.26
11 | GLMCLEHEDEKVNMYCVTDDQLGCALCKLVGRHRDHQVAALSE [I23G] | -0.19 ± 0.085
12 | GLMCLEHEDEKVNMYCVTDDQLDCALCKLVGRHRDHQVAALSE [I23D] | -0.124 ± 0.16
13 | GLMCLEHEDEKVNMYCVTDDQLCCALCKLVGRHRDHQVAALSE [I23C] | -0.081 ± 0.26
14 | GLMCLEHEDEKVNMYCVTDDQLRCALCKLVGRHRDHQVAALSE [I23R] | -0.237 ± 0.09
15 | GLMCLEHEDEKVNMYCVTDDQLKCALCKLVGRHRDHQVAALSE [I23K] | -0.312 ± 0.098
16 | GLMCLEHEDEKVNMYCVTDDQLICALCQLVGRHRDHQVAALSE [K28Q] | 0.288 ± 0.066
17 | GLMCLEHEDEKVNMYCVTDDQLICALCDLVGRHRDHQVAALSE [K28D] | -0.038 ± 0.35
18 | GLMCLEHEDEKVNMYCVTDDQLICALCCLVGRHRDHQVAALSE [K28C] | -0.148 ± 0.074
19 | GLMCLEHEDEKVNMYCVTDDQLICALCSLVGRHRDHQVAALSE [K28S] | 0.013 ± 0.069
20 | GLMCLEHEDEKVNMYCVTDDQLICALCWLVGRHRDHQVAALSE [K28W] | -0.149 ± 0.083

Row | Variant | abundance fitness
21 | GLMCLEHEDEKVNMYCVTDDQLICALCYLVGRHRDHQVAALSE [K28Y] | -0.161 ± 0.082
22 | GLMCLEHEDEKVNMYCVTDDQLICALCMLVGRHRDHQVAALSE [K28M] | -0.114 ± 0.07
23 | GLMCLEHEDEKVNMYCVTDDQLICALCRLVGRHRDHQVAALSE [K28R] | 0.119 ± 0.05
24 | GLMCLEHEDEKVNMYCVTDDQLICALCALVGRHRDHQVAALSE [K28A] | 0.083 ± 0.059
25 | GLMCLEHEDEKVNMYCVTDDQLICALCLLVGRHRDHQVAALSE [K28L] | -0.16 ± 0.054
26 | GLMCLEHEDEKVNMYCVTDDQLICALCHLVGRHRDHQVAALSE [K28H] | 0.083 ± 0.098
27 | GLMCLEHEDEKVNMYCVTDDQLICALCVLVGRHRDHQVAALSE [K28V] | -0.396 ± 0.068
28 | GLMCLEHEDEKVNMYCVTDDQLICALCELVGRHRDHQVAALSE [K28E] | 0.007 ± 0.062
29 | GLMCLEHEDEKVNMYCVTDDQLICALCFLVGRHRDHQVAALSE [K28F] | -0.316 ± 0.22
30 | GLMCLEHEDEKVNMYCVTDDQLICALCILVGRHRDHQVAALSE [K28I] | 0.061 ± 0.16
31 | GLMCLEHEDEKVNMYCVTDDQLICALCPLVGRHRDHQVAALSE [K28P] | 0 ± 0.074
32 | GLMCLEHEDEKVNMYCVTDDQLICALCNLVGRHRDHQVAALSE [K28N] | -0.042 ± 0.085
33 | GLMCLEHEDEKVNMYCVTDDQLICALCTLVGRHRDHQVAALSE [K28T] | 0.063 ± 0.06
34 | GLMCLEHEDEKVNMYCVTDDQLICALCGLVGRHRDHQVAALSE [K28G] | 0.013 ± 0.045
35 | GLMCLEHEDEKVNMYCVTDDQLIMALCKLVGRHRDHQVAALSE [C24M] | -1.02 ± 0.39
36 | GLMCLEHEDEKVNMYCVTDDQLIRALCKLVGRHRDHQVAALSE [C24R] | -1.02 ± 0.1
37 | GLMCLEHEDEKVNMYCVTDDQLIEALCKLVGRHRDHQVAALSE [C24E] | -1.05 ± 0.14
38 | GLMCLEHEDEKVNMYCVTDDQLIVALCKLVGRHRDHQVAALSE [C24V] | -0.971 ± 0.13
39 | GLMCLEHEDEKVNMYCVTDDQLIGALCKLVGRHRDHQVAALSE [C24G] | -0.814 ± 0.082
40 | GLMCLEHEDEKVNMYCVTDDQLIYALCKLVGRHRDHQVAALSE [C24Y] | -0.364 ± 0.31

Row | Variant | abundance fitness
41 | GLMCLEHEDEKVNMYCVTDDQLIKALCKLVGRHRDHQVAALSE [C24K] | -0.885 ± 0.25
42 | GLMCLEHEDEKVNMYCVTDDQLINALCKLVGRHRDHQVAALSE [C24N] | -0.656 ± 0.21
43 | GLMCLEHEDEKVNMYCVTDDQLISALCKLVGRHRDHQVAALSE [C24S] | -1.01 ± 0.13
44 | GLMCLEHEDEKVNMYCVTDDQLIAALCKLVGRHRDHQVAALSE [C24A] | -0.799 ± 0.13
45 | GLMCLEHEDEKVNMYCVTDDQLITALCKLVGRHRDHQVAALSE [C24T] | -0.706 ± 0.23
46 | GLMCLEHEDEKVNMYCVTDDQLIWALCKLVGRHRDHQVAALSE [C24W] | -0.978 ± 0.12
47 | GLMCLEHEDEKVNMYCVTDDQLILALCKLVGRHRDHQVAALSE [C24L] | -0.868 ± 0.093
48 | GLMCLEHEDEKVNMYCVTDDQLIPALCKLVGRHRDHQVAALSE [C24P] | -0.977 ± 0.18
49 | GLMCLEHEDEKVNMYCVTDDQLIQALCKLVGRHRDHQVAALSE [C24Q] | -0.792 ± 0.15
50 | GLMCLEHEDEKVNMYCVTDDQSICALCKLVGRHRDHQVAALSE [L22S] | 0.316 ± 0.11
51 | GLMCLEHEDEKVNMYCVTDDQPICALCKLVGRHRDHQVAALSE [L22P] | 0.428 ± 0.094
52 | GLMCLEHEDEKVNMYCVTDDQMICALCKLVGRHRDHQVAALSE [L22M] | 0.004 ± 0.11
53 | GLMCLEHEDEKVNMYCVTDDQKICALCKLVGRHRDHQVAALSE [L22K] | 0.33 ± 0.076
54 | GLMCLEHEDEKVNMYCVTDDQNICALCKLVGRHRDHQVAALSE [L22N] | 0.698 ± 0.26
55 | GLMCLEHEDEKVNMYCVTDDQWICALCKLVGRHRDHQVAALSE [L22W] | 0.024 ± 0.079
56 | GLMCLEHEDEKVNMYCVTDDQVICALCKLVGRHRDHQVAALSE [L22V] | -0.025 ± 0.074
57 | GLMCLEHEDEKVNMYCVTDDQRICALCKLVGRHRDHQVAALSE [L22R] | 0.311 ± 0.059
58 | GLMCLEHEDEKVNMYCVTDDQTICALCKLVGRHRDHQVAALSE [L22T] | 0.204 ± 0.075
59 | GLMCLEHEDEKVNMYCVTDDQQICALCKLVGRHRDHQVAALSE [L22Q] | 0.29 ± 0.12
